Source: article PMC5902510

Biological target: GST-SpyCatcher fusion protein, immobilised on nanoparticles (Streptococcus pyogenes)
Assay: dynamic light scattering; GST-SpyCatcher held on 40 nm citrate-capped gold nanoparticles; excess of the second protein, 3 h incubation; increase of Z-average diameter (Δd); 20 °C; 10 mM HEPES pH 7.3, 10 mM NaCl

NEM-GST-SpyTag
increase of particle diameter (Δd): 3 nm
